In article PMC10685452:
Where no end group is shown, it is not given here.

Target: T1, hGOAT-eGFP (human ghrelin O-acyltransferase with C-terminal eGFP and His10 tag) (human) (UniProt Q96T53)
T1 sequence: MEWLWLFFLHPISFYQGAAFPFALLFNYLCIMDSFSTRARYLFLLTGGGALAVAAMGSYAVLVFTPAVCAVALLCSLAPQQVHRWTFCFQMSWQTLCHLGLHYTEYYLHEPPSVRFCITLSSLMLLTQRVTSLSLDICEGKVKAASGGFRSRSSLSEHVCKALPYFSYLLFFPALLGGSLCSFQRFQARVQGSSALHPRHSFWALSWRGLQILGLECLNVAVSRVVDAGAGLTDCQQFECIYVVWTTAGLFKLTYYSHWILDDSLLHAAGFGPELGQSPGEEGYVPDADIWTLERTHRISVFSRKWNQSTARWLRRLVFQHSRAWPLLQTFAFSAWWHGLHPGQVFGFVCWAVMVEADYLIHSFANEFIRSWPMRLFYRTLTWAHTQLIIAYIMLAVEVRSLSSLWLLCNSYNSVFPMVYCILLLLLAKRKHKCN

ghrelin octanoylation activity of the MEGA-9 solubilisation supernatant of hGOAT-eGFP (HPLC, conversion of the fluorescent peptide substrate to the octanoylated product): 20%
B1: fluorescently labeled ghrelin mimetic peptide GSSFLC-NH2 (acrylodan-labelled) (peptide)
peptide: GSSFLC-NH2
modifications: not fully specified (residue 6); printed as GSSFLC_NH2_; ends and bridges not checked; also: acrylodan label, site not given here
